Experimental findings from US20080181886A1 (published 2008) are described below.

Test [1] addresses T1, TRX-APRIL (mouse, UniProt Q9D777 104-241).
T1 chain: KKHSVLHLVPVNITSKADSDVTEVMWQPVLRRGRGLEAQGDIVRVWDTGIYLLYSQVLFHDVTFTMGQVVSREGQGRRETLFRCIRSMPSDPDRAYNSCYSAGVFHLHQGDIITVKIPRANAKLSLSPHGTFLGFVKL
Put plainly: competitive SPR (BCMA-Fc).

The target of test [2] is T2, human BAFF (UniProt Q9Y275 82-285). Put plainly: competitive SPR.
Test [3] concerns the target T2, human BAFF. Put plainly: competitive SPR; interaction observed, curve not fitted adequately.
In test [4] the target is T2, human BAFF. Put plainly: competitive SPR. This is another data set of the same source.
Test [5] concerns the target T1, TRX-APRIL. Put plainly: competitive SPR.

Ends that are not written are not given here.

T2 sequence (Q9Y275 82-285): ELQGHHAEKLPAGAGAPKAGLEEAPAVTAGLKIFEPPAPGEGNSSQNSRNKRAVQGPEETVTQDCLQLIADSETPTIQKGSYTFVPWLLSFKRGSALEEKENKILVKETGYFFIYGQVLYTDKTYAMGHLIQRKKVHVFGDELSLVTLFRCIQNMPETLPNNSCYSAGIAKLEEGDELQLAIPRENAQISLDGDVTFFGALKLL

B1: TACI_d1d2 (residues 21-116 of the TACI extracellular domain, C-terminal His-tag) (receptor)
chain: FPQGLWTGVAMRSCPEEQYWDPLLGTCMSCKTICNHQSQRTCAAFCRSLSCRKEQGKFYDHLLRDCISCASICGQHPKQCAYFCENKLRSPVNLPP
With B1, the IC50 came out at 11 nM in the test with TRX-APRIL [1] and 1.3 nM with human BAFF [2].

B2: TACI_d1 (first CRD of TACI, residues 32-67) (receptor)
chain: RSCPEEQYWDPLLGTCMSCKTICNHQSQRTCAAFCR
modifications: disulfide (positions not given here); also: more than one disulfide-bonded isomer, pairings not given here
With B2, the half-maximal inhibitory concentration (IC50) with human BAFF [3] is more than 100 nM; with TRX-APRIL [1] it was 2000 nM.

B3: TACI_d2 (second cysteine-rich domain, CRD2, residues 68-109 of human TACI) (receptor)
chain: GSPWSLSCRKEQGKFYDHLLRDCISCASICGQHPKQCAYFCENKLR
With B3, the figures for the IC50 with human BAFF [4], with TRX-APRIL [5] and in the test with human BAFF [2] were 4 nM, 3.2 nM and 1.8 nM, respectively.

In general, IC50 refers to the midpoint of a concentration-inhibition curve. Low values mean inhibition by little substance, high ones a need for much substance.
